# From patent US20260297187 (published 2026)
# T1: CEACAM1-his (human)
# T1 chain: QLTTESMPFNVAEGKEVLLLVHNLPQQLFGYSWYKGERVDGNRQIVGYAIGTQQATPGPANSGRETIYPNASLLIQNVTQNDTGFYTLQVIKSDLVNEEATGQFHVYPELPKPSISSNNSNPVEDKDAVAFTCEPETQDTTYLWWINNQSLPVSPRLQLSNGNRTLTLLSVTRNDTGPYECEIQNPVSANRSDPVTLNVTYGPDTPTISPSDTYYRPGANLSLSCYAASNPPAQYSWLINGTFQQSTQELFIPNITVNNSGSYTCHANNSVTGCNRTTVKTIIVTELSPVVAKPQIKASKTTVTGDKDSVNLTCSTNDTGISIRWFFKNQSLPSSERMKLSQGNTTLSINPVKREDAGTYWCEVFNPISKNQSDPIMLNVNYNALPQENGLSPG
# Target: T1, CEACAM1-his
# Experiment: BLI
row,Kd,Binder
1,2.15 nM,"h2C10.G4.H0aL0a (antibody, V domains shown) VH: QVQLVQSGAEVKKPGASVKVSCKASGFAFTNYLIEWVRQAPGQGLEWMGVLNPGSGATNYNEKFKGRVTMTRDTSISTAYMELSRLRSDDTAVYYCARGIYGGYFAMDYWGQGTLVTVSS VL: DIQMTQSPSSLSASVGDRVTITCRASQDITTYLNWYQQKPGKAPKLLIYYTSRLHSGVPSRFSGSGSGTDFTFTISSLQPEDIATYYCQQGNTLPRTFGQGTKVEIK"
2,2 nM,"h2C10.G4.H3L4 (antibody, V domains shown) VH: QVQLVQSGAEVKKPGASVKVSCKASGFAFTNYLIEWVRQAPGQGLEWMGVLNPGSGATNYNEKFKGRVTMTADTSISTAYMELSRLRSDDTAVYYCARGIYGGYFAMDYWGQGTLVTVSS VL: DIQMTQSPSSLSASVGDRVTITCRASQDITTYLNWYQQKPGGAPKLLIYYTSRLHSGVPSRFSGSGSGTDFTLTISSLQPEDIATYYCQQGNTLPRTFGGGTKLEIK"
3,1.13 nM,"h2C10.G4.H3L3 (antibody, V domains shown) VH: QVQLVQSGAEVKKPGASVKVSCKASGFAFTNYLIEWVRQAPGQGLEWMGVLNPGSGATNYNEKFKGRVTMTADTSISTAYMELSRLRSDDTAVYYCARGIYGGYFAMDYWGQGTLVTVSS VL: DIQMTQSPSSLSASVGDRVTITCRASQDITTYLNWYQQKPGGAPKLLIYYTSRLHSGVPSRFSGSGSGTDYTLTISSLQPEDIATYYCQQGNTLPRTFGGGTKLEIK"
4,2.23 nM,"h2C10.G4.H0aL0b (antibody, V domains shown) VH: QVQLVQSGAEVKKPGASVKVSCKASGFAFTNYLIEWVRQAPGQGLEWMGVLNPGSGATNYNEKFKGRVTMTRDTSISTAYMELSRLRSDDTAVYYCARGIYGGYFAMDYWGQGTLVTVSS VL: DIQMTQSPSSLSASVGDRVTITCRASQDITTYLNWYQQKPGKAPKLLIYYTSRLHSGVPSRFSGSGSGTDFTLTISSLQPEDFATYYCQQGNTLPRTFGQGTKVEIK"
5,2.18 nM,"h2C10.G4.H3L1 (antibody, V domains shown) VH: QVQLVQSGAEVKKPGASVKVSCKASGFAFTNYLIEWVRQAPGQGLEWMGVLNPGSGATNYNEKFKGRVTMTADTSISTAYMELSRLRSDDTAVYYCARGIYGGYFAMDYWGQGTLVTVSS VL: DIQMTQSPSSLSASVGDRVTITCRASQDITTYLNWYQQKPGKAPKLLIYYTSRLHSGVPSRFSGSGSGTDFTLTISSLQPEDIATYYCQQGNTLPRTFGQGTKVEIK"
6,1.81 nM,"h2C10.G4.H0aL1 (antibody, V domains shown) VH: QVQLVQSGAEVKKPGASVKVSCKASGFAFTNYLIEWVRQAPGQGLEWMGVLNPGSGATNYNEKFKGRVTMTRDTSISTAYMELSRLRSDDTAVYYCARGIYGGYFAMDYWGQGTLVTVSS VL: DIQMTQSPSSLSASVGDRVTITCRASQDITTYLNWYQQKPGKAPKLLIYYTSRLHSGVPSRFSGSGSGTDFTLTISSLQPEDIATYYCQQGNTLPRTFGQGTKVEIK"
7,0.927 nM,"h2C10.G4.H3L2 (antibody, V domains shown) VH: QVQLVQSGAEVKKPGASVKVSCKASGFAFTNYLIEWVRQAPGQGLEWMGVLNPGSGATNYNEKFKGRVTMTADTSISTAYMELSRLRSDDTAVYYCARGIYGGYFAMDYWGQGTLVTVSS VL: DIQMTQSTSSLSASVGDRVTITCRASQDITTYLNWYQQKPGGAPKLLIYYTSRLHSGVPSRFSGSGSGTDYTLTISSLQPEDIATYYCQQGNTLPRTFGGGTKLEIK"
8,0.944 nM,"h2C10.G4.H0aL3 (antibody, V domains shown) VH: QVQLVQSGAEVKKPGASVKVSCKASGFAFTNYLIEWVRQAPGQGLEWMGVLNPGSGATNYNEKFKGRVTMTRDTSISTAYMELSRLRSDDTAVYYCARGIYGGYFAMDYWGQGTLVTVSS VL: DIQMTQSPSSLSASVGDRVTITCRASQDITTYLNWYQQKPGGAPKLLIYYTSRLHSGVPSRFSGSGSGTDYTLTISSLQPEDIATYYCQQGNTLPRTFGGGTKLEIK"
9,1.77 nM,"h4D10.G4.H3L2 (antibody, V domains shown) VH: QVQLVQSGAEVKKPGASVKVSCKASGYTFSSYVIHWVRQAPGQGLEWMGYFNPYNNGTNYNENFKGRVTMTADTSISTAYMELSRLRSDDTAVYYCARYYYASGSLYFDYWGQGTLVTVSS VL: DIQMTQSPSTLSASVGDRVTITCSASSSVSYMHWYQQKPGKAPKPLIYEISKLASGVPSRFSGSGSGTEFTLTISSLQPDDAATYYCQQWNYPLITFGGGTKVEIK"
10,1.46 nM,"h4D10.G4.H3L1 (antibody, V domains shown) VH: QVQLVQSGAEVKKPGASVKVSCKASGYTFSSYVIHWVRQAPGQGLEWMGYFNPYNNGTNYNENFKGRVTMTADTSISTAYMELSRLRSDDTAVYYCARYYYASGSLYFDYWGQGTLVTVSS VL: DIQLTQSPSFLSASVGDRVTITCSASSSVSYMHWYQQKPGKAPKPLIYEISKLASGVPSRFSGSGSGTEFTLTISSLQPEDAATYYCQQWNYPLITFGGGTKVEIK"
11,1.53 nM,"h4D10.G4.H4L1 (antibody, V domains shown) VH: QVQLVQSGAEVKKPGASVKVSCKASGYTFSSYVIHWVRQAPGQGLEWMGYFNPYNNGTNYNENFKGRVTMTADTSTSTVYMELSSLRSEDTAVYYCARYYYASGSLYFDYWGQGTTVTVSS VL: DIQLTQSPSFLSASVGDRVTITCSASSSVSYMHWYQQKPGKAPKPLIYEISKLASGVPSRFSGSGSGTEFTLTISSLQPEDAATYYCQQWNYPLITFGGGTKVEIK"
12,2.16 nM,"h4D10.G4.H0bL1 (antibody, V domains shown) VH: QVQLVQSGAEVKKPGASVKVSCKASGYTFSSYVIHWVRQAPGQGLEWMGYFNPYNNGTNYNENFKGRVTMTRDTSTSTVYMELSSLRSEDTAVYYCARYYYASGSLYFDYWGQGTTVTVSS VL: DIQLTQSPSFLSASVGDRVTITCSASSSVSYMHWYQQKPGKAPKPLIYEISKLASGVPSRFSGSGSGTEFTLTISSLQPEDAATYYCQQWNYPLITFGGGTKVEIK"
13,2.28 nM,"h4D10.G4.H0bL2 (antibody, V domains shown) VH: QVQLVQSGAEVKKPGASVKVSCKASGYTFSSYVIHWVRQAPGQGLEWMGYFNPYNNGTNYNENFKGRVTMTRDTSTSTVYMELSSLRSEDTAVYYCARYYYASGSLYFDYWGQGTTVTVSS VL: DIQMTQSPSTLSASVGDRVTITCSASSSVSYMHWYQQKPGKAPKPLIYEISKLASGVPSRFSGSGSGTEFTLTISSLQPDDAATYYCQQWNYPLITFGGGTKVEIK"

# Target: T1, CEACAM1-his
# Experiment: BLI
# Remark: another data set of the same source
row,Kd,Binder
1,5.86 nM,"h4D10.G4.H4(N56Q Y100V)L2 (antibody, V domains shown) VH: QVQLVQSGAEVKKPGASVKVSCKASGYTFSSYVIHWVRQAPGQGLEWMGYFNPYNQGTNYNENFKGRVTMTADTSTSTVYMELSSLRSEDTAVYYCARYVYASGSLYFDYWGQGTTVTVSS VL: DIQMTQSPSTLSASVGDRVTITCSASSSVSYMHWYQQKPGKAPKPLIYEISKLASGVPSRFSGSGSGTEFTLTISSLQPDDAATYYCQQWNYPLITFGGGTKVEIK"
2,5.41 nM,"h4D10.G4.H4(N56I Y100W)L2 (antibody, V domains shown) VH: QVQLVQSGAEVKKPGASVKVSCKASGYTFSSYVIHWVRQAPGQGLEWMGYFNPYNIGTNYNENFKGRVTMTADTSTSTVYMELSSLRSEDTAVYYCARYWYASGSLYFDYWGQGTTVTVSS VL: DIQMTQSPSTLSASVGDRVTITCSASSSVSYMHWYQQKPGKAPKPLIYEISKLASGVPSRFSGSGSGTEFTLTISSLQPDDAATYYCQQWNYPLITFGGGTKVEIK"
3,1.13 nM,"h4D10.G4.H4(N56W Y100F)L2 (antibody, V domains shown) VH: QVQLVQSGAEVKKPGASVKVSCKASGYTFSSYVIHWVRQAPGQGLEWMGYFNPYNWGTNYNENFKGRVTMTADTSTSTVYMELSSLRSEDTAVYYCARYFYASGSLYFDYWGQGTTVTVSS VL: DIQMTQSPSTLSASVGDRVTITCSASSSVSYMHWYQQKPGKAPKPLIYEISKLASGVPSRFSGSGSGTEFTLTISSLQPDDAATYYCQQWNYPLITFGGGTKVEIK"
4,4.87 nM,"h4D10.G4.H4(N56V Y100W)L2 (antibody, V domains shown) VH: QVQLVQSGAEVKKPGASVKVSCKASGYTFSSYVIHWVRQAPGQGLEWMGYFNPYNVGTNYNENFKGRVTMTADTSTSTVYMELSSLRSEDTAVYYCARYWYASGSLYFDYWGQGTTVTVSS VL: DIQMTQSPSTLSASVGDRVTITCSASSSVSYMHWYQQKPGKAPKPLIYEISKLASGVPSRFSGSGSGTEFTLTISSLQPDDAATYYCQQWNYPLITFGGGTKVEIK"
5,6.22 nM,"h4D10.G4.H4(N56I Y100V)L2 (antibody, V domains shown) VH: QVQLVQSGAEVKKPGASVKVSCKASGYTFSSYVIHWVRQAPGQGLEWMGYFNPYNIGTNYNENFKGRVTMTADTSTSTVYMELSSLRSEDTAVYYCARYVYASGSLYFDYWGQGTTVTVSS VL: DIQMTQSPSTLSASVGDRVTITCSASSSVSYMHWYQQKPGKAPKPLIYEISKLASGVPSRFSGSGSGTEFTLTISSLQPDDAATYYCQQWNYPLITFGGGTKVEIK"
6,4.97 nM,"h4D10.G4.H4(N56W Y100V)L2 (antibody, V domains shown) VH: QVQLVQSGAEVKKPGASVKVSCKASGYTFSSYVIHWVRQAPGQGLEWMGYFNPYNWGTNYNENFKGRVTMTADTSTSTVYMELSSLRSEDTAVYYCARYVYASGSLYFDYWGQGTTVTVSS VL: DIQMTQSPSTLSASVGDRVTITCSASSSVSYMHWYQQKPGKAPKPLIYEISKLASGVPSRFSGSGSGTEFTLTISSLQPDDAATYYCQQWNYPLITFGGGTKVEIK"
7,3.39 nM,"h4D10.G4.H4(N56W Y100W)L2 (antibody, V domains shown) VH: QVQLVQSGAEVKKPGASVKVSCKASGYTFSSYVIHWVRQAPGQGLEWMGYFNPYNWGTNYNENFKGRVTMTADTSTSTVYMELSSLRSEDTAVYYCARYWYASGSLYFDYWGQGTTVTVSS VL: DIQMTQSPSTLSASVGDRVTITCSASSSVSYMHWYQQKPGKAPKPLIYEISKLASGVPSRFSGSGSGTEFTLTISSLQPDDAATYYCQQWNYPLITFGGGTKVEIK"
8,2.75 nM,"h4D10.G4.H4(N56V Y100F)L2 (antibody, V domains shown) VH: QVQLVQSGAEVKKPGASVKVSCKASGYTFSSYVIHWVRQAPGQGLEWMGYFNPYNVGTNYNENFKGRVTMTADTSTSTVYMELSSLRSEDTAVYYCARYFYASGSLYFDYWGQGTTVTVSS VL: DIQMTQSPSTLSASVGDRVTITCSASSSVSYMHWYQQKPGKAPKPLIYEISKLASGVPSRFSGSGSGTEFTLTISSLQPDDAATYYCQQWNYPLITFGGGTKVEIK"
